Measurements reported in article PMC9482650, “Quantitative fragmentomics allow affinity mapping of interactomes” (Nature Communications, 2022).
Positions count from the first letter of the chain named. Values belong to the binder of their own block, whether it stands above or below them.

How the values were obtained:
Assay in all cases: holdup assay
Parameters in all cases: key: below the threshold = too weak to quantify, mostly under pKd 3.1 to 4
[1] = target: GRID2IP_1, A4D2P6
[2] = target: PDZRN4_1, Q6ZMN7
PDZRN4_1, Q6ZMN7, sequence (Q6ZMN7 213-318): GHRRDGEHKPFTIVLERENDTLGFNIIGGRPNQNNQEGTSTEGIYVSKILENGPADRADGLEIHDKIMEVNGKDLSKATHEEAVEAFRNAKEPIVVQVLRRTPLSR

[3] = target: T1, APBA2_2, Q99767
T1 sequence (Q99767 654-744, limits assumed, looked up): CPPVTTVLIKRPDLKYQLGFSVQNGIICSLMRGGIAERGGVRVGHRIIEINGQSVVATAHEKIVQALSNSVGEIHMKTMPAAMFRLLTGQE

[4] = target: IL16_1, Q14005
IL16_1, Q14005, sequence (Q14005 210-306): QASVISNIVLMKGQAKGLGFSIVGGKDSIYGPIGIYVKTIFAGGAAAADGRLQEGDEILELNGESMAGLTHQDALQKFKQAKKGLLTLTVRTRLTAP

[5] = target: T2, FRMPD1, Q5SYB0
T2 sequence (Q5SYB0 52-145, limits assumed, looked up): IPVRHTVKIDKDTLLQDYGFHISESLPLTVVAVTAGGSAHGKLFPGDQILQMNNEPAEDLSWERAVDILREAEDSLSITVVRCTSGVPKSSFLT

[6] = target: TJP1_2, Q07157
TJP1_2, Q07157, sequence (Q07157 181-274): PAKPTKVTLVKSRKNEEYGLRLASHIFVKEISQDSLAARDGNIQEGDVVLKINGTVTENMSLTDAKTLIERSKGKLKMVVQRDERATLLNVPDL

[7] = target: LNX1_1, Q8TBB1
LNX1_1, Q8TBB1, sequence (Q8TBB1 261-371): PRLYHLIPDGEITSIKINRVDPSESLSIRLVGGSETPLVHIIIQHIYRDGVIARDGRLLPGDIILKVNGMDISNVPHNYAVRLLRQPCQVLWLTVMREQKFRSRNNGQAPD

[8] = target: Inadl_5, Q8NI35
Inadl_5, Q8NI35, sequence (Q8NI35 673-780): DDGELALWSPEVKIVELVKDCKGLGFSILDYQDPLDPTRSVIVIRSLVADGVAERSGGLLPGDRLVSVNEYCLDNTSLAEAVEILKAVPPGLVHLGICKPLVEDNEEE

[9] = target: DLG2_3, Q15700
[10] = target: FRMPD3, Q5JV73
FRMPD3, Q5JV73, sequence (Q5JV73 12-100): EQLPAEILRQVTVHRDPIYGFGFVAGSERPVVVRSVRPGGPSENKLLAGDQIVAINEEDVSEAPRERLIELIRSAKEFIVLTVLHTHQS

[11] = target: SCRIB_1, Q14160
SCRIB_1, Q14160, sequence (Q14160 718-814): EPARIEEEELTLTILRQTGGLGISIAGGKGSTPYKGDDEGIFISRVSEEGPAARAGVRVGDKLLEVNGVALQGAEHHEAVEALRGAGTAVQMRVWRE

[12] = target: T3, PDZD7_3, Q9H5P4
T3 sequence (Q9H5P4 857-944, limits assumed, looked up): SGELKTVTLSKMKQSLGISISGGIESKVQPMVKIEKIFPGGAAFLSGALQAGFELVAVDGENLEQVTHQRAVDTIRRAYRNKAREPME

[13] = target: T4, GRIP1_7, Q9Y3R0
T4 sequence (Q9Y3R0 999-1096, limits assumed, looked up): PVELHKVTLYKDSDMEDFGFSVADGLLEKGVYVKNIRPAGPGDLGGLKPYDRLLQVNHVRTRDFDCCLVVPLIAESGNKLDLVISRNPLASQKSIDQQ

[14] = target: T5, LIN7B, Q9HAP6
T5 sequence (Q9HAP6 88-185, limits assumed, looked up): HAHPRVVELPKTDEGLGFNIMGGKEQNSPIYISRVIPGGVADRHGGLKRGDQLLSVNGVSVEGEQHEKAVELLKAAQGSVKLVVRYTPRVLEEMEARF

[15] = target: MAGI2_3, Q86UL8
MAGI2_3, Q86UL8, sequence (Q86UL8 600-682): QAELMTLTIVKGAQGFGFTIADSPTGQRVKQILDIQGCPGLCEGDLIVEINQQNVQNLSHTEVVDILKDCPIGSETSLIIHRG

[16] = target: DLG4_2, P78352
DLG4_2, P78352, sequence (P78352 155-259): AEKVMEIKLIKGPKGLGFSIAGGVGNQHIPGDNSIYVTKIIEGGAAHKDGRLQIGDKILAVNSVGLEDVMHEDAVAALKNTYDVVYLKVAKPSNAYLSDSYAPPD

[17] = target: T6, PCLO, Q9Y6V0
T6 sequence (Q9Y6V0 4491-4600, limits assumed, looked up): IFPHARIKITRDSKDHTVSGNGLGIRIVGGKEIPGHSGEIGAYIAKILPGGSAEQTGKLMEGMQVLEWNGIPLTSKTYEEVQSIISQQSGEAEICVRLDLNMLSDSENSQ

[18] = target: GRID2IP_2, A4D2P6
GRID2IP_2, A4D2P6, sequence (A4D2P6 272-370): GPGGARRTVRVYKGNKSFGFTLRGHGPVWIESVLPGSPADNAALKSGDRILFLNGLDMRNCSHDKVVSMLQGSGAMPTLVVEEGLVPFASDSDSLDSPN

[19] = target: MAGI2_4, Q86UL8
MAGI2_4, Q86UL8, sequence (Q86UL8 772-865): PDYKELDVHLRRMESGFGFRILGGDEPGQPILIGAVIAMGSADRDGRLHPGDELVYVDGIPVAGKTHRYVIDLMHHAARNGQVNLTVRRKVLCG

[20] = target: MAST1, Q9Y2H9
MAST1, Q9Y2H9, sequence (Q9Y2H9 962-1065): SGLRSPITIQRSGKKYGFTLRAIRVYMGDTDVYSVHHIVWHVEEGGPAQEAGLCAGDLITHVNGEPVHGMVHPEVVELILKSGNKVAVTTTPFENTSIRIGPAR

[21] = target: FRMPD4, Q14CM0
FRMPD4, Q14CM0, sequence (Q14CM0 67-160): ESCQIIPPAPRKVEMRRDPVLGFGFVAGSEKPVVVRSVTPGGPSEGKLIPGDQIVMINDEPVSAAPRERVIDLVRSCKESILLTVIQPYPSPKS

[22] = target: T7, TIAM2, Q8IVF5
T7 sequence (Q8IVF5 885-986, limits assumed, looked up): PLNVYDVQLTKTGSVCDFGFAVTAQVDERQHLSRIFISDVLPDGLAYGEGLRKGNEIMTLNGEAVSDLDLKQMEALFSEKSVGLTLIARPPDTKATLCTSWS

[23] = target: T8, GRIP1_4, Q9Y3R0
T8 sequence (Q9Y3R0 467-571, limits assumed, looked up): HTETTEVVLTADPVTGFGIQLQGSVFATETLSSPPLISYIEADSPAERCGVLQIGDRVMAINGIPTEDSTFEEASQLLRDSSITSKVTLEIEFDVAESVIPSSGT

[24] = target: LNX1_3, Q8TBB1
LNX1_3, Q8TBB1, sequence (Q8TBB1 500-596): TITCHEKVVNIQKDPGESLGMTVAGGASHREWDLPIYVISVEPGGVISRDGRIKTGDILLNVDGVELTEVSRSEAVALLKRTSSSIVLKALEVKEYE

[25] = target: MAGI2_6, Q86UL8
MAGI2_6, Q86UL8, sequence (Q86UL8 1141-1229): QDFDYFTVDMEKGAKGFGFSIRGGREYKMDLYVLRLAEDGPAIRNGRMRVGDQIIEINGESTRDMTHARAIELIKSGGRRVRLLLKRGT

[26] = target: T9, PTPN13_1, Q12923
T9 sequence (Q12923 1088-1188, limits assumed, looked up): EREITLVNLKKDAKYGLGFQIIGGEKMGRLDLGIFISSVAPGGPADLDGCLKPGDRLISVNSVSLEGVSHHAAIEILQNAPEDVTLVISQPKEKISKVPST

[27] = target: T10, LIN7A, O14910
T10 sequence (O14910 103-200, limits assumed, looked up): T5 sequence (Q9HAP6 88-185, limits assumed, looked up) with A2S, I20V, V35I, D42E, Q65H, Q77K, G78D, R89K

[28] = plain residues with an end cap or a label only (N-terminal biotin on a linker: ado-ado)
[29] = plain residues with an end cap or a label only (N-terminal biotin on a linker: ahx)

GRID2IP_1, A4D2P6, sequence (A4D2P6 1-87): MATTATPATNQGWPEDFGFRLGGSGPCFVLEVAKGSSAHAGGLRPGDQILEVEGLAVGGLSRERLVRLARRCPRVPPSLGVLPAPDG

Binder: TRKRSGEAAV [PFKM, P08237]
pKd [1, 28]: below the threshold
pKd [2, 28]: below the threshold
pKd [3, 28]: below the threshold
pKd [4, 28]: 3.63
pKd [5, 28]: below the threshold
pKd [6, 28]: below the threshold
pKd [7, 28]: below the threshold
pKd [8, 28]: below the threshold
pKd [9, 28]: below the threshold
pKd [10, 28]: below the threshold
pKd [11, 28]: below the threshold
pKd [12, 28]: 3.88
pKd [13, 28]: below the threshold
pKd [14, 28]: below the threshold
pKd [15, 28]: below the threshold
pKd [16, 28]: 3.93
pKd [17, 28]: below the threshold
pKd [18, 28]: below the threshold
pKd [19, 28]: below the threshold
pKd [20, 28]: 4.08
pKd [21, 28]: 3.58
pKd [22, 28]: below the threshold
pKd [23, 28]: below the threshold
pKd [24, 28]: below the threshold
pKd [25, 28]: below the threshold
pKd [26, 28]: below the threshold
pKd [27, 28]: below the threshold

Binder: KPGKGSETVV [FZD4, Q9ULV1]
pKd [1, 28]: below the threshold
pKd [2, 28]: 3.51
pKd [3, 28]: below the threshold
pKd [4, 28]: 3.61
pKd [5, 28]: below the threshold
pKd [6, 28]: below the threshold
pKd [7, 28]: below the threshold
pKd [8, 28]: below the threshold
pKd [9, 28]: 4.01
pKd [10, 28]: below the threshold
pKd [11, 28]: 4.04
pKd [12, 28]: 4.67
pKd [13, 28]: below the threshold
pKd [14, 28]: below the threshold
pKd [15, 28]: below the threshold
pKd [16, 28]: 4.92
pKd [17, 28]: below the threshold
pKd [18, 28]: below the threshold
pKd [19, 28]: 4.48
pKd [20, 28]: 4.4
pKd [21, 28]: below the threshold
pKd [22, 28]: below the threshold
pKd [23, 28]: below the threshold
pKd [24, 28]: below the threshold
pKd [25, 28]: below the threshold
pKd [26, 28]: below the threshold
pKd [27, 28]: below the threshold

Binder: EKQAKGDTEF [CACYBP, Q9HB71]
pKd [1, 29]: below the threshold
pKd [2, 29]: below the threshold
pKd [3, 29]: below the threshold
pKd [4, 29]: below the threshold
pKd [5, 29]: below the threshold
pKd [6, 29]: below the threshold
pKd [7, 29]: below the threshold
pKd [8, 29]: below the threshold
pKd [9, 29]: below the threshold
pKd [10, 29]: 3.81
pKd [11, 29]: below the threshold
pKd [12, 29]: below the threshold
pKd [13, 29]: below the threshold
pKd [14, 29]: below the threshold
pKd [15, 29]: below the threshold
pKd [16, 29]: below the threshold
pKd [17, 29]: below the threshold
pKd [18, 29]: below the threshold
pKd [19, 29]: below the threshold
pKd [20, 29]: below the threshold
pKd [21, 29]: 3.55
pKd [22, 29]: below the threshold
pKd [23, 29]: below the threshold
pKd [24, 29]: below the threshold
pKd [25, 29]: below the threshold
pKd [26, 29]: below the threshold
pKd [27, 29]: below the threshold

More lines, now with the values ahead:

pKd [1, 28]: below the threshold
pKd [2, 28]: below the threshold
pKd [3, 28]: below the threshold
pKd [4, 28]: below the threshold
pKd [5, 28]: below the threshold
pKd [6, 28]: 4.2
pKd [7, 28]: 3.75
pKd [8, 28]: 3.51
pKd [9, 28]: 3.73
pKd [10, 28]: 4.07
pKd [11, 28]: 3.77
pKd [12, 28]: 4.15
pKd [13, 28]: below the threshold
pKd [14, 28]: 3.89
pKd [15, 28]: 3.7
pKd [16, 28]: 3.51
pKd [17, 28]: below the threshold
pKd [18, 28]: below the threshold
pKd [19, 28]: 3.94
pKd [20, 28]: 3.96
pKd [21, 28]: 3.5
pKd [22, 28]: 4.16
pKd [23, 28]: below the threshold
pKd [24, 28]: below the threshold
pKd [25, 28]: 3.81
pKd [26, 28]: 3.5
pKd [27, 28]: below the threshold
Binder: SLNANEVEWF [RNF130, Q86XS8]

pKd [1, 28]: below the threshold
pKd [2, 28]: below the threshold
pKd [3, 28]: below the threshold
pKd [4, 28]: below the threshold
pKd [5, 28]: below the threshold
pKd [6, 28]: below the threshold
pKd [7, 28]: 4.19
pKd [8, 28]: below the threshold
pKd [9, 28]: below the threshold
pKd [10, 28]: below the threshold
pKd [11, 28]: 4.62
pKd [12, 28]: 4.91
pKd [13, 28]: below the threshold
pKd [14, 28]: below the threshold
pKd [15, 28]: below the threshold
pKd [16, 28]: 4.2
pKd [17, 28]: below the threshold
pKd [18, 28]: 4.56
pKd [19, 28]: below the threshold
pKd [20, 28]: 4.67
pKd [21, 28]: 3.68
pKd [22, 28]: below the threshold
pKd [23, 28]: below the threshold
pKd [24, 28]: below the threshold
pKd [25, 28]: 4.99
pKd [26, 28]: below the threshold
pKd [27, 28]: below the threshold
Binder: AAVENKVTDL [PLXNB1, O43157]
